In US20170106021A1, “COMPOSITIONS ENRICHED FOR HOX11+ STEM CELLS AND METHODS OF PREPARING THE SAME” (The General Hospital Corporation, priority 2014, published 2017):

B1: granulocyte colony-stimulating factor (protein, UniProt P09919 31-207, looked up)
Granulocyte …: TPLGPASSLPQSFLLKCLEQVRKIQGDGAALQEKLVSECATYKLCHPEELVLLGHSLGIPWAPLSSCPSQALQLAGCLSQLHSGLFLYQGLLQALEGISPELGPTLDTLQLDVADFATTIWQQMEELGMAPALQPTQGAMPAFASAFQRRAGGVLVASHLQSFLEVSYRVLRHLAQP
notes: cytokine mobilization agent administered to donors to mobilize stem cells to peripheral blood

What was measured:
[1] = system: mobilized stem cells; conditions: plerixafor 240 μg/kg; cited from earlier work
[2] = system: CD34 mRNA expression in PBLs; assay: Quantitative real-time PCR of CD34 mRNA in peripheral blood lymphocytes (PBLs) of donors; type: in vivo, human; conditions: PBLs from G-CSF treated donors (mobilized, n=18) vs non-treated donors (non-mobilized, n=10); normalized to β-actin; p=0.02; FIGS. 1A, 1C
Protocol: (§1) All −70° C. frozen human peripheral blood cell samples used for this study were either from the Core Center of Excellence in Hematology (CCEH) at the Fred Hutchison Cancer Research Center or from Massachusetts General Hospital (MGH). These peripheral blood samples were obtained from donors not treated (non-mobilized samples) or treated with recombinant G-CSF (mobilized samples). Additional samples include peripheral blood samples from G-CSF treated donors that were further enriched for CD34+ stem cells. The non-mobilized, mobilized, and CD34+ stem cell enriched samples were obtained following human consent protocol 985.03-2 from Fred Hutchison Cancer Research Center. Additional fresh peripheral blood lymphocytes (PBLs) that were used to standardize the mRNA expressions of the frozen PBLs samples were obtained following human consent protocol MGH-2001P001379 from MGH, which involved the obligatory informed consent of all subjects.
(§2) Peripheral blood lymphocytes (PBLs) isolated from peripheral blood samples through leukapheresis were thawed in 37° C. water bath and washed with PBS+1% FBS twice. […] Quantitative real-time PCR was performed using Power SYBR Green reagent (Applied Biosystems, Foster City, Calif.) and the 7000 Real-Time PCR System.
(§3) Relative mRNA expression was calculated using a comparative count method (ddCT method). […]

[3] = system: Hox11 mRNA expression in PBLs; assay: Quantitative real-time PCR of Hox11 mRNA in peripheral blood lymphocytes (PBLs) of donors; type: in vivo, human; conditions: PBLs from G-CSF treated donors (mobilized, n=18) vs non-treated donors (non-mobilized, n=10); normalized to β-actin; p=0.000013; FIGS. 1B, 1D
Protocol: as §1, §2, §3

Row | Molecule | time at which the number of mobilized stem cells peaks after administration [1] [h] | CD34 mRNA expression (relative quantity) [2] | Hox11 mRNA expression (relative quantity) [3]
1 | c1cc(CN2CCCNCCNCCCNCC2)ccc1CN1CCCNCCNCCCNCC1 [plerixafor] | 4 to 10 | – | –
2 | B1 | – | exclusively found in PBLs isolated from mobilized peripheral blood samples | exclusively found in PBLs isolated from mobilized peripheral blood samples
